Reference: PMC7943553 (2021)

Legend:
[1] = biological target: 250233; assay: BLI; representative sensorgram
[2] = biological target: 279280; assay: BLI; representative sensorgram
[3] = biological target: 277278; assay: BLI; representative sensorgram
[4] = biological target: 254255; assay: BLI; representative sensorgram
[5] = biological target: 340341; assay: BLI; representative sensorgram
[6] = biological target: 262231; assay: BLI; representative sensorgram
[7] = biological target: 260261; assay: BLI; representative sensorgram
[8] = biological target: 346343; assay: BLI; representative sensorgram
[9] = biological target: 239229; assay: BLI; representative sensorgram
[10] = biological target: 252248; assay: BLI; representative sensorgram
[11] = biological target: 335338; assay: BLI; representative sensorgram
[12] = biological target: 256257; assay: BLI; representative sensorgram
[13] = biological target: 267268; assay: BLI; representative sensorgram
[14] = biological target: 326327; assay: BLI; representative sensorgram
[15] = biological target: 250233; assay: BLI
[16] = biological target: 279280; assay: BLI
[17] = biological target: 277278; assay: BLI
[18] = biological target: 254255; assay: BLI
[19] = biological target: 340341; assay: BLI
[20] = biological target: 262231; assay: BLI
[21] = biological target: 260261; assay: BLI
[22] = biological target: 346343; assay: BLI
[23] = biological target: 239229; assay: BLI
[24] = biological target: 281282; assay: BLI
[25] = biological target: 252248; assay: BLI
[26] = biological target: 335338; assay: BLI
[27] = biological target: 256257; assay: BLI
[28] = biological target: 267268; assay: BLI
[29] = biological target: 326327; assay: BLI

B1: P. vivax Reticulocyte Binding Protein 2b, residues 161–1454 (domain or fragment)
chain: PSPESTQITNTTDNIDYFDISDESNYYLISQLRPHFSNIYFFDEFKRYASYHTEIKRYEDIHKTKVNSLLNEASRAIGICNRAKNTVKGLINILENPQKFKTQRESYDVKLRQYEEKKEAFRGCLLNKNRKNLDQIKKINNEIRDLLEKLKCSQDCQTNVYFDMIKIYLVDFKKMPYENYDTFIKQYKNSYLSGVDMIRKIEKQIDNPVTINAIKFTQKEMGYIIDRFEYHLQKVKHSIDQVTALSDGVKPKQVTKNRLKEYYFNIGNYYSIFKFGKDSLNMLNKALIHKEKIVHNLLGELFGHLEERISKLIDSEYFITESNNIISQSEETLKLAEDVYDKNTKLIEDLTLYPHLEINEFKKDYDNNVEDLRESIIYIQSYVSSIKSAYRYNVLEKDSVESKQKNIPANSNAQKKVDELLSIIDSISYSNFSVAENFQKMKDYYKEIEKLKIKILQLIEAIKKYQQHVEELINKEKAVAILKEDINKIIEYIKGIIEKLKQLISANKDFDKIFQQVEQLINEALFNKDQFEHNKNDLHTKMKEIMHTFHERDLQQFLDNMSKFLKDQEASYQNADSKEKLDQLLTTVKAKQDELKEMKCDDIPDIIDNLKKESQNVLNLKDEVINKQFENMRTEMSSSLDQMTKEYNALKSSIEEYEAEKKGIENHKQNIIKRKNTFIVAEHENDEDVPEGKNTYNEFISNKDTILQKESAISNQMNTLEEKKRNRKTTLQTYGDAIQKLETYTEKKDEETKVLLDKFNTEVENFKLDEDEKSFNDAKSIVSNTINEVENENKNIDSIKKVNIAMKRSRSNQQSVEQLIRNKDNLLKEKMEKHFQKINTDEIIGQSAKANLLNNLESEKAIINEQLNDAHLNDLKLQIEKTLSYCEKSRENIKGNNGTHPEELNASEIEWEATKGKIETLNSNYQALNKNMDDIINKQHDEMIVLIDRDIKEKGKDIELKVEQRIQALEKMKAKLSSFDTNEDVKKYQSDINKEELIKLKEMSTAVLNKIDQNKNQLINVKTKSSGYVAESNGIKNKQTEPSQEKDKQIVYNTNRGDIEKVYKNIRDMYNELDDVEKEETTSNEVDNIEMQYDRLLINLLVQKINEENTKAKGLMEEIKSYIENIESVQAKMSDETREGATEFEFNQYQQSSLANDKKITEIVQHAINKKGEAERSKKTNEVKSIKNDVNTYMQQVIDEYNAMQKALGDIKNVNDLLISTSGRRIAEEISKSTNEAENFEKQAKGELGKINDIIEKMENQMVQAKEHENKIHINLEDKQIDEEVQKIRQIHEE
modifications: DyLight 488 (NHS ester) in the FRET assay; biotin (BirA site) in the competition ELISA between human mAbs
- Kd [1]: 1 nM
- Kd [2]: 0.8 nM
- Kd [3]: 0.0189 nM
- Kd [4]: 0.0157 nM
- Kd [5]: 0.0794 nM
- Kd [6]: 0.1 nM
- Kd [7]: < 0.01 nM
- Kd [8]: < 0.01 nM
- Kd [9]: 0.1 nM
- Kd [10]: 0.3 nM
- Kd [11]: 0.0505 nM
- Kd [12]: < 0.01 nM
- Kd [13]: 0.3 nM
- Kd [14]: 0.5 nM
- Kd [15]: 0.988 nM
- koff [15]: 0.00035 s⁻¹
- Kd [16]: 0.727 nM
- koff [16]: 0.000194 s⁻¹
- Kd [17]: 0.0796 nM
- koff [17]: 3.08e-05 s⁻¹
- Kd [18]: 0.0742 nM
- koff [18]: 2.52e-05 s⁻¹
- Kd [19]: 0.107 nM
- koff [19]: 3.85e-05 s⁻¹
- Kd [20]: 0.14 nM
- koff [20]: 6.22e-05 s⁻¹
- Kd [21]: 0.0205 nM
- koff [21]: 6.23e-06 s⁻¹
- Kd [22]: < 0.01 nM
- koff [22]: < 1e-06 s⁻¹
- Kd [23]: 0.112 nM
- koff [23]: 4.6e-05 s⁻¹
- Kd [24]: 0.0273 nM
- koff [24]: 6.03e-06 s⁻¹
- Kd [25]: 0.586 nM
- koff [25]: 0.000193 s⁻¹
- Kd [26]: 0.0782 nM
- koff [26]: 3.08e-05 s⁻¹
- Kd [27]: < 0.01 nM
- koff [27]: < 1e-06 s⁻¹
- Kd [28]: 0.213 nM
- koff [28]: 5.71e-05 s⁻¹
- Kd [29]: 0.642 nM
- koff [29]: 0.000246 s⁻¹
